# Test results as given in paper PMC12246617, “Cryo-EM structures reveal the PP2A–B55α and Eya3 interaction that can be disrupted by a peptide inhibitor” (The Journal of Biological Chemistry, 2025).
# Changes are numbered by the printed parent chain. Names may count otherwise.
# B1: H79A: Eya3 H79A mutant protein from E. coli (protein, UniProt Q99504 1-573, looked up, variant H79A)
# Protein phosphatase EYA3: MEEEQDLPEQPVKKAKMQESGEQTISQVSNPDVSDQKPETSSLASNLPMSEEIMTCTDYIPRSSNDYTSQMYSAKPYAAILSVPVSETAYPGQTQYQTLQQTQPYAVYPQATQTYGLPPFGALWPGMKPESGLIQTPSPSQHSVLTCTTGLTTSQPSPAHYSYPIQASSTNASLISTSSTIANIPAAAVASISNQDYPTYTILGQNQYQACYPSSSFGVTGQTNSDAESTTLAATTYQSEKPSVMAPAPAAQRLSSGDPSTSPSLSQTTPSKDTDDQSRKNMTSKNRGKRKADATSSQDSELERVFLWDLDETIIIFHSLLTGSYAQKYGKDPTVVIGSGLTMEEMIFEVADTHLFFNDLEECDQVHVEDVASDDNGQDLSNYSFSTDGFSGSGGSGSHGSSVGVQGGVDWMRKLAFRYRKVREIYDKHKSNVGGLLSPQRKEALQRLRAEIEVLTDSWLGTALKSLLLIQSRKNCVNVLITTTQLVPALAKVLLYGLGEIFPIENIYSATKIGKESCFERIVSRFGKKVTYVVIGDGRDEEIAAKQHNMPFWRITNHGDLVSLHQALELDFL
# B2: Eya3: Eya3 protein purified from Escherichia coli (mEya3) or HEK293 FreeStyle cells (FLAG-hEya3) (protein)
# chain: B1 Protein phosphatase EYA3 with A79H
# modifications: left off: FLAG, end not stated, kept
# Experiments:
# [1] = test system: triple-negative breast cancer (TNBC) tumor; conditions: PP2A–B55α binding mutant; cited from earlier work
# Description: (§1) We have shown that Eya proteins directly interact with the PP2A–B55α but not B56 subunit. […] Moreover, all Eya family members can interact with PP2A–B55α through analogous disordered regions in their NTDs ([27], [46]).
# [2] = test system: Myc; conditions: PP2A–B55α binding mutant; cited from earlier work
# Description: as §1
# [3] = test system: B55; conditions: Eya3 mutant; cited from earlier work
# Description: The modeled Eya3 peptide (residues 65–86) interacts mostly with residues on blades 3 and 4 of the β-propeller on the B55 surface (including residues on the β2D and β3A loop, β3B and β3C loop, and β3D and β4A loop) and with residues on the α1 and α2 helix positioned above blade 5, as well as the α2 and β6A loop (Fig. 1F). In particular, residue H79^Eya3 forms pi–pi or pi–cation stacking with H179^B55 and a hydrogen bond with D197^B55 (Fig. 2A). […] Furthermore, Y77^Eya3 forms a hydrogen bon ...
# [4] = test system: B55α (His-B55); assay: Microscale thermophoresis (MST) binding of Eya3 to labeled His-B55; design: species or system human
# Description: We expressed and purified Eya3 protein from Escherichia coli and the His-B55α subunit from insect cells (Fig. S1). In the remainder of the article, we will use B55 to represent B55α for simplicity and PP2A–B55 to represent the holoenzyme containing the A, B55, and C subunits. We labeled His-B55 with the RED–Tris–NTA dye and carried out microscale thermophoresis (MST) experiments with increasing concentrations of Eya3.
# The modeled Eya3 peptide (residues 65–86) interacts mostly with residues on blades 3 and 4 of the β-propeller on the B55 surface (including residues on the β2D and β3A loop, β3B and β3C loop, and β3D and β4A loop) and with residues on the α1 and α2 helix positioned above blade 5, as well as the α2 and β6A loop (Fig. 1F). In particular, residue H79^Eya3 forms pi–pi or pi–cation stacking with H179^B55 and a hydrogen bond with D197^B55 (Fig. 2A). […] Furthermore, Y77^Eya3 forms a hydrogen bond with the main chain carbonyl of L225^B55, and K75^Eya3 forms another hydrogen bond with Y337^B55 (Fig. 2, B and C). […] We expressed and purified Eya3 K75A, Y77A, and H79A mutant proteins from E. coli and carried out MST experiments with fluorescently labeled His-B55. […] While we were working on the structure of PP2A–B55 + Eya3, Padi et al. ([84]) published the cryo-EM structure of PP2A–B55 in complex with an Eya3 peptide (residues 62–108) on bioRxiv.
# (§2) FLAG-hB55, FLAG-hEya3, GFP, and GFP-B55i were cloned into the pCAG vector; (GST)-mEya3 was cloned into pGEX-6p1; His-hB56γ1 was cloned into pGEX-4T1; and His-hB55 was cloned in pFASTbac, all using the NEBuilder HiFi DNA Assembly Cloning Kit (New England Biolabs). h and m represent human and mouse proteins, respectively.
# GST-mEya3 and mutants were expressed in BL21 cells. Cells were lysed in lysis buffer containing 50 mM Tris (pH 7.5), 250 mM NaCl, 5% glycerol, 1 mM DTT, and protease inhibitor cocktail (PIC; Thermo Scientific). Lysis was done in ice with sonication using 4 × 45 s pulses with 2-min off periods. NaCl was brought up to 0.5 M using 5 M NaCl, and the lysate was centrifuged for 40 min at 18,000g. Supernatant was gravity-flown over glutathione resin twice. Resin was washed with 100 ml of lysis buffer. GST was cleaved with PreScission protease and eluted into lysis buffer. Eluates were pooled and concentrated with Amicon Ultra Centrifugal filters. Concentrated protein was separated on a pre-equilibrated S200 column for size-exclusion chromatography. Peaks were combined, concentrated again, aliquoted, and stored at −80 °C.
# His-B55 was expressed in Hi5 cells. […]
# His-B55 or His-B56γ1 labeled with […] (NanoTemper) was added to serial dilutions of mEya3 in PBS with 0.05% Tween-20. The samples were then read with a Monolith NT.115^Pico (NanoTemper) according to the manufacturer’s instructions.
# [5] = test system: PP2A–B55; conditions: malachite green assay, peptide substrate KRpTIRR; 50 mM Tris [pH 7.5], 50 mM NaCl, 5 mM MgCl2, 0.1 mM EDTA; cited from earlier work
# Description: To identify the factor that led to this discrepancy, we first repeated our as ...
# [6] = test system: Eya3 and B55 complex (FLAG-hEya3 + His-B55); assay: Mass photometry of Eya3 and B55 complex formation and its disruption by B55i; type: binding, human; conditions: no B55i, 20 mM Tris (pH 8), 250 mM NaCl, 1 mM MnCl2, 0.5 mM TCEP, molar ratio 1.5:1, diluted to 100 nM
# Description: To evaluate the effect of B55i in cells, we expressed the B55i peptide as a GFP fusion on a plasmid in 66cl4 TNBC cells.
# B, MST binding affinity curve showing the interaction between mEya3 and His-B55α. C, B55i disruption of the mEya3 and His-B55α interaction on MST. […] The amount of GFP and GFP-B55i expressed was also quantified using eGFP absorbance at 488 nm and normalized to total protein in the cell lysate. The datasets in all panels represent three independent biological replicates. Error bars represent the standard deviation. Statistical data analysis was done using Fmax tests followed by two-tailed, homoscedastic t tests. ∗p < 0.05, ∗∗p < 0.01, and ∗∗∗∗p < 0.0001. MST, microscale thermophoresis; TNBC, triple-negative breast cancer. […] It is uncertain whether these count as molecular weight results or as excluded spectrum labels.
# as §2
# hEya3 and PP2A–B55 were combined in 20 mM Tris (pH 8), 250 mM NaCl, 1 mM MnCl2, and 0.5 mM TCEP at a molar ratio of 1.5:1. […] Immediately prior to reading, the solution was diluted to 100 nM. Samples were analyzed on the Refeyn TwoMP (Refeyn).
# [7] = test system: Myc pT58; conditions: cited from earlier work
# Description: The weak inhibition of the PP2A–B55 activity by its B55 binders may have different consequences i ...
Molecule,TNBC tumor metastasis [1],Myc stabilization [2],interaction between Eya3 and B55 [3],"binding between Eya3 and B55 (mutants) ([4]; fluorescently labeled His-B55, vs Eya3 WT)",phosphatase activity of PP2A–B55 [5],Eya3 and B55 complex formation [6],"Kd ([4]; His-B55 labeled with Red–Tris–NTA dye, serial dilutions of Eya3 (mEya3, E. coli), PBS with 0.05% Tween-20, Monolith NT.115 Pico, three independent biological replicates (stated for Fig. 1A)) [nM]",dephosphorylation of pT58 on Myc [7]
B1,impeded,impeded Myc stabilization,dramatically reduce the interaction between Eya3 and B55,significantly reduce the binding between Eya3 and B55,–,–,–,–
B2,–,–,–,–,increases the phosphatase activity of PP2A–B55,Eya3 and B55 form a complex,1040,clearly increases the dephosphorylation of pT58 on Myc
